In US20240117030A1 (Pfizer, published 2024):
Numbering of substitutions follows the chain as printed. Like-named read-outs stand apart in the source and are kept apart here.

What was measured:
Test in all cases: cell-based or functional assay
[1] = molecular target: recombinant human TSLP (glycosylated long form) (human, UniProt Q969D9 29-159)
recombinant human IL-4 = molecular target: T1, recombinant human IL-4 (human, UniProt P05112 25-153)
T1 sequence (looked up): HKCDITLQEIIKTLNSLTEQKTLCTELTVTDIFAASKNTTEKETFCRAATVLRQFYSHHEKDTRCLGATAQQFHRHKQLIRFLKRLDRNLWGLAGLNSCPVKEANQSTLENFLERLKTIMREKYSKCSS

recombinant human IL-13 = recombinant human IL-13 (human, UniProt P35225 35-146)
Sequence of recombinant human IL-13 (P35225 35-146 limits assumed): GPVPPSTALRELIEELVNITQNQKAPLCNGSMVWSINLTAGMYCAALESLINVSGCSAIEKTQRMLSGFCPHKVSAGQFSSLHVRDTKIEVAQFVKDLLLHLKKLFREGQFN

recombinant human IL-33 = molecular target: T2, recombinant human IL-33 (human, UniProt O95760 112-270, limits assumed)
T2 sequence (looked up): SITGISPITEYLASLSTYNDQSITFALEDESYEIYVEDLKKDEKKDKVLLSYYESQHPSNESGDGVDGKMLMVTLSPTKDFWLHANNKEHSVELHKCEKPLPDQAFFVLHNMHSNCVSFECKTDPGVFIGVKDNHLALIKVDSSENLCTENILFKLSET

human IL-13 [2] = molecular target: T3, human IL-13 (human, UniProt P35225 35-146)
T3 sequence (P35225 35-146 limits assumed, form in doubt): as the sequence (P35225 35-146 limits assumed) above

human IL-13 [3] = molecular target: T3, human IL-13; remark: listed apart in the source
human IL-33 mm2 Cys = molecular target: T4, human IL-33 mm2 Cys (human, UniProt O95760 112-270, limits assumed)
T4 sequence (looked up): T2 sequence (looked up) with C97S, C116S, C121S, C148S

B1: TSLP-0820 (antibody, human IgG1, lambda, V domains shown)
VH: EMQLVESGGGLVQPGGSLRLSCAASGFTFRTYGMHWVRQAPGKGLEWVAVIWYDGSNKHYADSVKGRFTISRDNAKNSLYLQMNSLRAEDTAVYYCARAPQWYLVHEAFDIWGQGTMVTVSS
VL: SYVLTQPPSVSVAPGQTARITCGGNNLGSKSVHWYQQKPGQAPVLVVYDDSDRPSWIPERFSGSNSGNTATLTISRGEAGDEADYYCQVWDSSSDHVVFGGGTKLTVLG
[1]
  a-TSLP TARC bioassay (fold change to TSLP-0001): 2.5 fold

B2: TSLP-2002 (antibody, human IgG1, lambda, V domains shown)
VH: B1 VH
VL: B1 VL with S51K, S93K
[1]
  a-TSLP TARC bioassay (fold change to TSLP-0001): 5.1 fold

B3: TSLP-2004 (antibody, human IgG1, lambda, V domains shown)
VH: B1 VH
VL: B1 VL with S92K
[1]
  a-TSLP TARC bioassay (fold change to TSLP-0001): 6.4 fold

B4: TSLP-2000 (antibody, human IgG1, lambda, V domains shown)
VH: B1 VH
VL: B1 VL with D95K
[1]
  a-TSLP TARC bioassay (fold change to TSLP-0001): 7.2 fold

B5: IL13433-1275 (other)
heavy: EVQLVESGGGLVQPGGSLRLSCAASGFTFSSYWMYWVRQAPGKGLEWVAAITPNAGEDYYPESVKGRFTISRDNAKNSLYLQMNSLRAEDTAVYYCARGQYYYTKYSLGYWGQGTLVTVSSASTKGPSVFPLAPSSKSTSGGTAALGCLVKDYFPEPVTVSWNSGALTSGVHTFPAVLQSSGLYSLSSVVTVPSSSLGTQTYICNVNHKPSNTKVDKKVEPKSCDKTHTCPPCPAPEAAGAPSVFLFPPKPKDTLMISRTPEVTCVVVDVSHEDPEVKFNWYVDGVEVHNAKTKPREEQYNSTYRVVSVLTVLHQDWLNGKEYKCKVSNKALPAPIEKTISKAKGQPREPQVYTLPPSREEMTKNQVSLWCLVKGFYPSDIAVEWESNGQPENNYKTTPPVLDSDGSFFLYSKLTVDKSRWQQGNVFSCSVLHEALHSHYTQKSLSLSPGK
chain 1: DIQMTQSPSSLSASVGDRVTITCKASESVDHFGWSLVHWYQQKPGKAPKLLIYRASNLESGVPSRFSGSGSGTDFTLTISSLQPEDFATYYCQQSNEDPWTFGGGTKVEIKRTVAAPSVFIFPPSDEQLKSGTASVVCLLNNFYPREAKVQWKVDNALQSGNSQESVTEQDSKDSTYSLSSTLTLSKADYEKHKVYACEVTHQGLSSPVTKSFNRGECGGGGSEVTLRESGPALVKPTQTLTLTCTFSGFSLSNFGEGLSWIRQPPGKGLEWLAHIYWDDDKRYNPSLKSRLTISKDTSRNQVVLTMTNMDPVDTATYYCARRETVFYWYFDVWGQGTTVTVSSASTKGPSVFPLAPSSKSTSGGTAALGCLVKDYFPEPVTVSWNSGALTSGVHTFPAVLQSSGLYSLSSVVTVPSSSLGTQTYICNVNHKPSNTKVDKKVEPKSCDKTHTCPPCPAPEAAGAPSVFLFPPKPKDTLMISRTPEVTCVVVDVSHEDPEVKFNWYVDGVEVHNAKTKPREEQYNSTYRVVSVLTVLHQDWLNGKEYKCKVSNKALPAPIEKTISKAKGQPREPQVYTLPPSREEMTKNQVSLSCAVKGFYPSDIAVEWESNGQPENNYKTTPPVLDSDGSFFLVSKLTVDKSRWQQGNVFSCSVLHEALHSHYTQKSLSLSPGK
light 1: DIQMTQSPSSLSASVGDRVTITCRASQPIHNHLDWYQQKPGKAPKLLIYFGKNLQEGVPSRFSGSGSGTDFTLTISSLQPEDFATYYCFQYKKGWSFGGGTKVEIKRTVAAPSVFIFPPSDEQLKSGTASVVCLLNNFYPREAKVQWKVDNALQSGNSQESVTEQDSKDSTYSLSSTLTLSKADYEKHKVYACEVTHQGLSSPVTKSFNRGEC
light 2: DIQMTQSPSSLSASVGDRVTITCRASQSVDEEGDSYMNWYQQKPGKAPKLLIYAASNLESGVPSRFSGSGSGTDFTLTISSLQPEDFATYYCQQSNKDPPTFGGGTKVEIKRTVAAPSVFIFPPSDEQLKSGTASVVCLLNNFYPREAKVQWKVDNALQSGNSQESVTEQDSKDSTYSLSSTLTLSKADYEKHKVYACEVTHQGLSSPVTKSFNRGEC
chain 2: EVQLVESGGGLVQPGGSLRLSCAASGFTFSSYAMSWVRQAPGKGLEWVASISSGDTTYYPDSVKGRFTISRDNAKNSLYLQMNSLRAEDTAVYYCARNEGYYFGLTLWGQGTLVTVSSASTKGPSVFPLAPSSKSTSGGTAALGCLVKDYFPEPVTVSWNSGALTSGVHTFPAVLQSSGLYSLSSVVTVPSSSLGTQTYICNVNHKPSNTKVDKKVEPKSC
Recombinant human IL-4
  IL-4 Induced CD23 Expression, potency of cytokine neutralization: 0.0149 nM
Recombinant human IL-13
  IL-13 Induced CD23 Expression, potency of cytokine neutralization: 0.00888 nM
Recombinant human IL-33
  IL-33 WT Activation of SEAP Reporter Cells, potency of cytokine neutralization: 0.013 nM

B6: IL13-1306 (antibody, mouse IgG1, V domains shown)
VH: EVKLVESGGDLVKPGGSLKLSCAASGFTFSSYAMSWVRQSPDKRLEWVASISSGDTTYYPDSVKGRFTISRDNARNILYLQMTSLRSEDTAMYYCARLDGYYFGFPYWGQGTLVTVSA
VL: DTVLTQSPASLAVSLGQRATISCKASESVDHSGSSLMHWYQQKPGQSPKLLIYRASNLESGIPARFSGSGSRTDFTLTINPVEADDVATYYCQQSNEDPWTFGGGTKLEIK
Human IL-13 [2]
  pSTAT6 IC50 [pM]: 290 pM

B7: IL13-1307 (antibody, IgG1, V domains shown)
VH: EVQLVESGGGLVQPGGSLRLSCAASGFTFSSYAMSWVRQAPGKGLEWVASISSGDTTYYPDSVKGRFTISRDNAKNSLYLQMNSLRAEDTAVYYCARLDGYYFGFPYWGQGTLVTVSS
VL: DIQMTQSPSSLSASVGDRVTITCKASESVDHSGSSLMHWYQQKPGKAPKLLIYRASNLESGVPSRFSGSGSGTDFTLTISSLQPEDFATYYCQQSNEDPWTFGGGTKVEIK
Human IL-13 [2]
  CD23 IC50 [pM]: 214 pM
  pSTAT6 IC50 [pM]: 225 pM
Human IL-13 [3]
  CD23: Fold bioactivity relative to IL13-0001: 0.03 fold
  CD23: Fold bioactivity relative to IL13-1307: 1 fold
  CD23 IC50 [pM]: 306 pM
  pSTAT6: Fold bioactivity relative to IL13-0001: 0.7 fold
  pSTAT6: Fold bioactivity relative to IL13-1307: 1 fold
  pSTAT6 IC50 [pM]: 140 pM

B8: IL13433-1279 (other)
VH 1: B7 VH with L98N, D99E, F105L, P106T, Y107L
VL 1: B7 VL with S32F, S34W, M37V
VH 2: EVTLRESGPALVKPTQTLTLTCTFSGFSLSNFGEGLSWIRQPPGKGLEWLAHIYWDDDKRYNPSLKSRLTISKDTSRNQVVLTMTNMDPVDTATYYCARRETVFYWYFDVWGQGTTVTVSS
VL 2: B7 VL with K24R, E27Q, H31E, S32E, S34D, L36Y, H38N, R54A, E97K, W100P
VH 3: EVQLVESGGGLVQPGGSLRLSCAASGFTFSSYWMYWVRQAPGKGLEWVAAITPNAGEDYYPESVKGRFTISRDNAKNSLYLQMNSLRAEDTAVYYCARGQYYYTKYSLGYWGQGTLVTVSS
VL 3: DIQMTQSPSSLSASVGDRVTITCRASQPIHNHLDWYQQKPGKAPKLLIYFGKNLQEGVPSRFSGSGSGTDFTLTISSLQPEDFATYYCFQYKKGWSFGGGTKVEIK
Recombinant human IL-4
  IL-4 Induced CD23 Expression, potency of cytokine neutralization: 0.0137 nM
Recombinant human IL-13
  IL-13 Induced CD23 Expression, potency of cytokine neutralization: 0.00913 nM
Recombinant human IL-33
  IL-33 WT Activation of SEAP Reporter Cells, potency of cytokine neutralization: 0.013 nM

B9: IL13-1283 (antibody, human IgG1, kappa, V domains shown)
VH: B7 VH with S30I, D55G, T56N, P106A
VL: DIQMTQSPSSLSASVGDRVTITCKASESVDNYGKSLMHWYQQKPGKAPKLLIYRASNLESGVPSRFSGSGSGTDFTLTISSLQPEDFATYYCQQSNEDPWTFGGGTKVEIKR
Human IL-13 [2]
  CD23 IC50 [pM]: 261 pM
  pSTAT6 IC50 [pM]: 427 pM

B10: IL33-0217 (antibody, human IgG1, kappa, V domains shown)
VH: B8 VH 3 with Q100H, K105S
VL: DIQMTQSPSSLSASVGDRVTITCRASQNINKHLDWYQQKPGKAPKLLIYFTNNLQTGVPSRFSGSGSGTDFTLTISSLQPEDFATYYCFQYNQGWTFGGGTKVEIKR
Human IL-33 mm2 Cys
  IC50 [pM] versus human IL-33 mm2 Cys (HEK-Blue SEAP): 158 pM

B11: IL33-0220 (antibody, human IgG1, kappa, V domains shown)
VH: B8 VH 3 with Q100H, K105S
VL: B10 VL with N30Y
Human IL-33 mm2 Cys
  IC50 [pM] versus human IL-33 mm2 Cys (HEK-Blue SEAP): 176 pM

B12: IL33-0224 (antibody, human IgG1, V domains shown)
VH: B8 VH 3 with Q100H, K105S
VL: B8 VL 3 with H30S, N31K, G51T, K52N, E56T, K92N, K93Q, S96T
Human IL-33 mm2 Cys
  IC50 [pM] versus human IL-33 mm2 Cys (HEK-Blue SEAP): 115 pM

B13: IL33-0219 (antibody, human IgG1, kappa, V domains shown)
VH: B8 VH 3 with Q100H, K105S
VL: B10 VL with N30Q
Human IL-33 mm2 Cys
  IC50 [pM] versus human IL-33 mm2 Cys (HEK-Blue SEAP): 142 pM
